Experimental data as given in US20260078162A1.

Columns and labels:
[1] = target: BCMA-CAR with a CD3zeta signaling motif on CAR-Jurkat cells; assay: cell-based or functional assay
[2] = target: anti-CD19 chimeric antigen receptor (CAR) on Jurkat NFAT-GFP cells; assay: cell-based or functional assay

IC50 of inhibition of BCMA-CAR-Jurkat cell activation (CD69) by NCI-H929 cells [1]	IC50 of inhibition of CAR-Jurkat activation (NFAT-GFP) by K562 cells [2]	NFAT-GFP downregulated at the maximum concentration tested [2]	Substance
36 nM			BCMAwt-Fc fusion protein (pDP39-BCMA ECD-FC)
	200 nM	30%	CD19 wt-Fc (pDP10 CD19-WT FC) (Fc fusion)
